Test results from paper PMC10397247.

Tests used:
P12 = target: T1, P12; assay: two-hybrid library CC1;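 note: natural log of median RNA to DNA barcode read ratio; higher means stronger binding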
T1 chain: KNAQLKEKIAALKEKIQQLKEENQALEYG

P3 = target: T2, P3; assay: two-hybrid library CC1; conditions: mean of both orientations;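 note: natural log of median RNA to DNA barcode read ratio; higher means stronger binding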
T2 chain: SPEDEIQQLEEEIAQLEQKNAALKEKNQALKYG

P3mS [1] = target: T3, P3mS; assay: two-hybrid library CC1; conditions: mean of both orientations;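 note: natural log of median RNA to DNA barcode read ratio; higher means stronger binding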
T3 chain: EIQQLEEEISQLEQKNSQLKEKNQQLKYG

P4 = target: T4, P4; assay: two-hybrid library CC1; conditions: mean of both orientations;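 note: natural log of median RNA to DNA barcode read ratio; higher means stronger binding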
T4 chain: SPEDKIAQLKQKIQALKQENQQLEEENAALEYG

P4mS [2] = target: T5, P4mS; assay: two-hybrid library CC1; conditions: mean of both orientations;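 note: natural log of median RNA to DNA barcode read ratio; higher means stronger binding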
T5 chain: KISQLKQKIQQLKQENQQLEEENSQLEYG

P5SC1 = target: T6, P5SC1; assay: two-hybrid library CC1; conditions: mean of both orientations;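 note: natural log of median RNA to DNA barcode read ratio; higher means stronger binding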
T6 chain: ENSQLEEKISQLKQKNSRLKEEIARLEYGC

P5SC2 = target: T7, P5SC2; assay: two-hybrid library CC1; conditions: mean of both orientations
T7 chain: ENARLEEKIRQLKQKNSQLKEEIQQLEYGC

P5 = target: T8, P5; assay: two-hybrid library CC1; conditions: mean of both orientations
T8 chain: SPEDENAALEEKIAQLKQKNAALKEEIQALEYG

P5mS [3] = target: T9, P5mS; assay: two-hybrid library CC1; conditions: mean of both orientations
T9 chain: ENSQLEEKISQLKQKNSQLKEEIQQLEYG

P6SC1 = target: T10, P6SC1; assay: two-hybrid library CC1; conditions: mean of both orientations
T10 chain: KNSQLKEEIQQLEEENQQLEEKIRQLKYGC

P6SC2 = target: T11, P6SC2; assay: two-hybrid library CC1; conditions: mean of both orientations
T11 chain: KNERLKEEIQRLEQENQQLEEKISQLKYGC

P6 = target: T12, P6; assay: two-hybrid library CC1; conditions: mean of both orientations
T12 chain: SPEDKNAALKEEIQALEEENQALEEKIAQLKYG

P6mS [4] = target: T13, P6mS; assay: two-hybrid library CC1; conditions: mean of both orientations
T13 chain: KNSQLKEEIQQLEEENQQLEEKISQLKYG

P7 = target: T14, P7; assay: two-hybrid library CC1; conditions: mean of both orientations
T14 chain: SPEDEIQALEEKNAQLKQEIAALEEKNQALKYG

P7mS [5] = target: T15, P7mS; assay: two-hybrid library CC1; conditions: mean of both orientations
T15 chain: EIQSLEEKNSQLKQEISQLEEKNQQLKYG

P8 = target: T16, P8; assay: two-hybrid library CC1; conditions: mean of both orientations
T16 chain: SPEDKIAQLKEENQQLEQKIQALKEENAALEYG

P8mS [6] = target: T17, P8mS; assay: two-hybrid library CC1; conditions: mean of both orientations
T17 chain: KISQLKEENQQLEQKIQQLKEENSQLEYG

P9 = target: T18, P9; assay: two-hybrid library CC1; conditions: mean of both orientations
T18 chain: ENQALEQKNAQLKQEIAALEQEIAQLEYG

4H2568-bA = target: T19, 4H2568-bA; assay: two-hybrid library CCNG1
T19 chain: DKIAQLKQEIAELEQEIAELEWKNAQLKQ

4H2619-bA = target: T20, 4H2619-bA; assay: two-hybrid library CCNG1
T20 chain: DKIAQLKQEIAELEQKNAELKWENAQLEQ

4H2745-bA = target: T21, 4H2745-bA; assay: two-hybrid library CCNG1
T21 chain: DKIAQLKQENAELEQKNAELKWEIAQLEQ

4H344-bA = target: T22, 4H344-bA; assay: two-hybrid library CCNG1
T22 chain: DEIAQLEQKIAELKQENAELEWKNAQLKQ

4H363-bA = target: T23, 4H363-bA; assay: two-hybrid library CCNG1
T23 chain: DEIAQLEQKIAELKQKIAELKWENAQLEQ

4H3907-bA = target: T24, 4H3907-bA; assay: two-hybrid library CCNG1
T24 chain: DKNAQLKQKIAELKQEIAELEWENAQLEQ

4H3961-bA = target: T25, 4H3961-bA; assay: two-hybrid library CCNG1
T25 chain: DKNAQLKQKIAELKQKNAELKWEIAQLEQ

4H470-bA = target: T26, 4H470-bA; assay: two-hybrid library CCNG1
T26 chain: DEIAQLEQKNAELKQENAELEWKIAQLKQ

4H_APH3 = target: T27, 4H_APH3; assay: two-hybrid library CCmax
T27 chain: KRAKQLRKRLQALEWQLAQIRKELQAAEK

4H_APH = target: T28, 4H_APH; assay: two-hybrid library CCmax
T28 chain: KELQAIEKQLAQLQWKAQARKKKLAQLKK

4H_BCR = target: T29, 4H_BCR; assay: two-hybrid library CCmax; conditions: mean of both orientations
T29 chain: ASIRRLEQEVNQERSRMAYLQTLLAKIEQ

4H_GCN4 = assay: two-hybrid library CCmax
4H_GCN4, sequence (chain, as listed by the source): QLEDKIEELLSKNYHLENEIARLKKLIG

AP1-AA = target: T30, AP1-AA; assay: two-hybrid library CCmax
T30 chain: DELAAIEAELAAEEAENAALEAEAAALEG

AP2-AA = target: T31, AP2-AA; assay: two-hybrid library CCmax
T31 chain: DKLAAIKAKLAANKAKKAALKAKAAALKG

AP3-AA = target: T32, AP3-AA; assay: two-hybrid library CCmax
T32 chain: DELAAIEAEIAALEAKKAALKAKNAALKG

AP4-AA = target: T33, AP4-AA; assay: two-hybrid library CCmax; conditions: mean of both orientations
T33 chain: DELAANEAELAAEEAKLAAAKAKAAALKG

AP5-AA = target: T34, AP5-AA; assay: two-hybrid library CCmax; conditions: mean of both orientations
T34 chain: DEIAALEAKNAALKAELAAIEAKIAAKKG

AP6-AA = target: T35, AP6-AA; assay: two-hybrid library CCmax; conditions: mean of both orientations
T35 chain: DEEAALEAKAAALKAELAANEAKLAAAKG

AP7-AA = target: T36, AP7-AA; assay: two-hybrid library CCmax; conditions: mean of both orientations
T36 chain: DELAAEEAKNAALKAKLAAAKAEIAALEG

AP8-AA = target: T37, AP8-AA; assay: two-hybrid library CCmax; conditions: mean of both orientations
T37 chain: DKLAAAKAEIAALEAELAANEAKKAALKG

GCN2_T = assay: two-hybrid library CCmax
O11-AA = target: T38, O11-AA; assay: two-hybrid library CCmax; conditions: mean of both orientations
T38 chain: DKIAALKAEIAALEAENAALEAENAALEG

O13-AA = target: T39, O13-AA; assay: two-hybrid library CCmax; conditions: mean of both orientations
T39 chain: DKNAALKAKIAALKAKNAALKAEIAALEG

O14-AA = target: T40, O14-AA; assay: two-hybrid library CCmax; conditions: mean of both orientations
T40 chain: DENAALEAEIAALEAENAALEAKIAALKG

P1-AA = target: T41, P1-AA; assay: two-hybrid library CCmax; conditions: mean of both orientations
T41 chain: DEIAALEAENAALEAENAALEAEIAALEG

P10-AA = target: T42, P10-AA; assay: two-hybrid library CCmax; conditions: mean of both orientations
T42 chain: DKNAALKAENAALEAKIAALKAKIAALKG

P11-AA = target: T43, P11-AA; assay: two-hybrid library CCmax; conditions: mean of both orientations
T43 chain: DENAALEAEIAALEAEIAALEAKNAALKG

P12-AA = target: T44, P12-AA; assay: two-hybrid library CCmax; conditions: mean of both orientations
T44 chain: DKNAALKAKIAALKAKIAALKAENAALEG

P2-AA = target: T45, P2-AA; assay: two-hybrid library CCmax
T45 chain: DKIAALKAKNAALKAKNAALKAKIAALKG

P3-AA = target: T46, P3-AA; assay: two-hybrid library CCmax
T46 chain: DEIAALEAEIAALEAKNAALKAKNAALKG

P4-AA = target: T47, P4-AA; assay: two-hybrid library CCmax; conditions: mean of both orientations
T47 chain: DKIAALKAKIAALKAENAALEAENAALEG

P7-AA = target: T48, P7-AA; assay: two-hybrid library CCmax
T48 chain: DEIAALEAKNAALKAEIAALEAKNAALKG

P8-AA = target: T49, P8-AA; assay: two-hybrid library CCmax; conditions: mean of both orientations
T49 chain: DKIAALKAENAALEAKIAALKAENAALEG

P9-AA = target: T50, P9-AA; assay: two-hybrid library CCmax
T50 chain: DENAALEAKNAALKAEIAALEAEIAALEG

zCON9_A = target: T51, zCON9_A; assay: two-hybrid library CCmax
T51 chain: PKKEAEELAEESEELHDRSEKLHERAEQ

zCON9_B = target: T52, zCON9_B; assay: two-hybrid library CCmax; conditions: mean of both orientations
T52 chain: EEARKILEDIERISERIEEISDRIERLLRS

zCON9_D = target: T53, zCON9_D; assay: two-hybrid library CCmax
T53 chain: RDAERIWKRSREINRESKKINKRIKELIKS

P11mS = target: T54, P11mS; assay: two-hybrid library CCNG1
T54 chain: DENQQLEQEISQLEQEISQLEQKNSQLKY

P12mS = target: T55, P12mS; assay: two-hybrid library CCNG1
T55 chain: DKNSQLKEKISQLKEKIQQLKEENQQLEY

P3mS [7] = target: T56, P3mS; assay: two-hybrid library CCNG1
T56 chain: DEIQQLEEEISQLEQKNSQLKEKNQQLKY

P4mS [8] = target: T57, P4mS; assay: two-hybrid library CCNG1
T57 chain: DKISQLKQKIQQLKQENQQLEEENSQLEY

P5mS [9] = target: T58, P5mS; assay: two-hybrid library CCNG1
T58 chain: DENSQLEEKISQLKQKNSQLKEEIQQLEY

P6mS [10] = target: T59, P6mS; assay: two-hybrid library CCNG1
T59 chain: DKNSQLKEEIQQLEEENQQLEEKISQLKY

P7mS [11] = target: T60, P7mS; assay: two-hybrid library CCNG1
T60 chain: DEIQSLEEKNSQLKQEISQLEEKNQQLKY

P8mS [12] = target: T61, P8mS; assay: two-hybrid library CCNG1
T61 chain: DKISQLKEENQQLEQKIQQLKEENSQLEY

P9mS = target: T62, P9mS; assay: two-hybrid library CCNG1
T62 chain: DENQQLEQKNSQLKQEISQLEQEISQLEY

## KNAQLKEKIAALKEKIQQLKEENQALEYG [P12]
P12
  interaction score: -2.73
P3
  interaction score: 0.183
P3mS [1]
  interaction score: -0.884
P4
  interaction score: -2.97
P4mS [2]
  interaction score: -2.91
P5SC1
  interaction score: -2.96
P5SC2
  interaction score: -2.9
P5
  interaction score: -2.87
P5mS [3]
  interaction score: -2.78
P6SC1
  interaction score: -2.44
P6SC2
  interaction score: -2.47
P6
  interaction score: -2.42
P6mS [4]
  interaction score: -2.73
P7
  interaction score: -2.41
P7mS [5]
  interaction score: -2.85
P8
  interaction score: -2.9
P8mS [6]
  interaction score: -2.85
P9
  interaction score: -1.37

## DKIAQLKQEIAELEQEIAELEWKNAQLKQ [4H2568-bA]
4H2568-bA
  interaction score: 1.94
4H2619-bA
  interaction score: 0.254
4H2745-bA
  interaction score: -0.347
4H344-bA
  interaction score: 0.491
4H363-bA
  interaction score: 0.53
4H3907-bA
  interaction score: 1.89
4H3961-bA
  interaction score: 2.32
4H470-bA
  interaction score: -0.973

## KELQAIEKQLAQLQWKAQARKKKLAQLKK [4H_APH]
4H_APH3
  interaction score: -1.54
4H_APH
  interaction score: -2.1
4H_BCR
  interaction score: -1.64
4H_GCN4
  interaction score: -2.22
AP1-AA
  interaction score: -1.47
AP2-AA
  interaction score: -1.63
AP3-AA
  interaction score: -1.35
AP4-AA
  interaction score: -1.31
AP5-AA
  interaction score: -2.21
AP6-AA
  interaction score: -2.09
AP7-AA
  interaction score: -2.03
AP8-AA
  interaction score: -1.48
GCN2_T
  interaction score: -2.07
O11-AA
  interaction score: -1.39
O13-AA
  interaction score: -1.81
O14-AA
  interaction score: -1.65
P1-AA
  interaction score: -2.11
P10-AA
  interaction score: -1.47
P11-AA
  interaction score: -1.03
P12-AA
  interaction score: -1.3
P2-AA
  interaction score: -1.82
P3-AA
  interaction score: -0.728
P4-AA
  interaction score: -1.9
P7-AA
  interaction score: -1.87
P8-AA
  interaction score: -1.89
P9-AA
  interaction score: -1.86
zCON9_A
  interaction score: -1.26
zCON9_B
  interaction score: -2.09
zCON9_D
  interaction score: -1.96

## DENQQLEQEISQLEQEISQLEQKNSQLKY [P11mS]
P11mS
  interaction score: -0.707
P12mS
  interaction score: 1.52
P3mS [7]
  interaction score: -0.646
P4mS [8]
  interaction score: 0.774
P5mS [9]
  interaction score: 0.261
P6mS [10]
  interaction score: -0.739
P7mS [11]
  interaction score: -0.84
P8mS [12]
  interaction score: -0.0076
P9mS
  interaction score: -0.542

## DKNSQLKEKISQLKEKIQQLKEENQQLEY [P12mS]
P12mS
  interaction score: -1.27
P3mS [7]
  interaction score: 0.362
P4mS [8]
  interaction score: -0.954
P5mS [9]
  interaction score: -1.57
P6mS [10]
  interaction score: -0.944
P7mS [11]
  interaction score: -0.947
P8mS [12]
  interaction score: -0.844
P9mS
  interaction score: -0.472
